According to paper PMC8776730 (Nature Communications, 2022):

What was measured:
MIA PaCa-2 tumor = conditions: mouse, in vivo, iv, 16 mg/kg
Procedure: In order to reduce systemic error and individual difference, we constructed the subcutaneous pancreatic cancer model in mice for quantitatively calculating of the metabolic data.
All the animal experiments were performed in accordance with the Guide for the Care and Use of Laboratory Animals approved by the Committee for Animal Research of the National Center for Nanoscience and Technology. The MIA PaCa-2 tumor-bearing mice were intravenously injected with ICG, M1 and M2 (16 mg/kg), respectively for in vivo fluorescence imaging with in vivo spectrum imaging system. Finally, mice were sacrificed to collect the major organs and tumors for ex vivo fluorescence imaging.

[1] = mouse, in vivo, iv, 16 mg/kg
[2] = test system: Recombinant Human Fibroblast Activation Protein-α (FAP-α); experiment: FAP-α in buffer: 50 mM Tris, 1 M NaCl, 1 mg/mL, BSA, pH 7.5; conditions: up to 12 h
FAP-α = target: T1, FAP-α (Homo sapiens, UniProt Q12884); experiment: FAP-α tailoring (cleavage) followed by HPLC and MALDI-TOF; type: biochemical; conditions: 100 μM molecule, FAP-α 50 μM, 12 h; buffer 50 mM Tris, 1 M NaCl, 1 mg/mL BSA, pH 7.5; HPLC (M3, M5), MALDI-TOF (M1)
T1 construct: purchased R&D SYSTEM
T1 sequence (Q12884 1-760): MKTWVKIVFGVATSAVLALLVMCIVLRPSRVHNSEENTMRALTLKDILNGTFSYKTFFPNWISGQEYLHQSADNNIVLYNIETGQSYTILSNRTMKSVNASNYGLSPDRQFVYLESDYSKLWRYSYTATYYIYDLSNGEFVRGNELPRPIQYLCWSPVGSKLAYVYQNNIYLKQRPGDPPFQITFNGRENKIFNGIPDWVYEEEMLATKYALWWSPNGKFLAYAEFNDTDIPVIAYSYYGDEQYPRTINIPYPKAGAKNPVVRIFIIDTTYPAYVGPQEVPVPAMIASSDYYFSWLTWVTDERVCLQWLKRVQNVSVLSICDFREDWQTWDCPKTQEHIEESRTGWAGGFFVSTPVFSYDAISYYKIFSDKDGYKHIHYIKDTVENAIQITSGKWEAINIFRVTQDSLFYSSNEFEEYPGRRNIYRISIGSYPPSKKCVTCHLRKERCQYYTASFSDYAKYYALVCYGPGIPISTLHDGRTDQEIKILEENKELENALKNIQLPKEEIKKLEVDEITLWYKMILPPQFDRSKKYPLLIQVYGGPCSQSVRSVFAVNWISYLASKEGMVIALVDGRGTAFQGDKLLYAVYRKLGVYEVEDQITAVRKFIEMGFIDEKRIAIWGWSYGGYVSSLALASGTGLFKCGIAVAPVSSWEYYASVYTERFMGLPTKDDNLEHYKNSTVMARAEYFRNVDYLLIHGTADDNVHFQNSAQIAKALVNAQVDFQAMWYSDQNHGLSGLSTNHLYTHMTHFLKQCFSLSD
From the text: To further investigate the FAP-α specific tailoring and BIVA probe assembly in situ simultaneously (Fig. 4a), the high-performance liquid chromatography (HPLC), TEM, and matrix-assisted laser desorption/ionization time-of-flight (MALDI-TOF) mass spectrometry were applied for the characterizations purpose. To specify the cutting of the response tailoring motif (Gly-Pro-Ala), pre-synthesized molecules of R-M3, M3 and M5 were set as controls. […] Comparing the residues peaks with R-M3, the primary sharp peak at 27.4 min can be identified by the R-M3 control (27.6 min). […] The retention time of M1 after co-incubation with inactivated FAP-α was similar to that of M3 (Supplementary Fig. 14). After hydrolyzed by FAP-α, the residues of M1 in situ assembled into nanofibers structures under the complex buffer (Fig. 4c and Supplementary Fig. 15). […] In order to further evaluate the specificity of M1 for different enzymes, including FAP-α, pepsin, pancreatin, lipase, and BSA, we used ThT (Thioflavin T) as a detection probe (Fig. 4e).
Fig. 4 The FAP-α specific molecule tailoring and inducing in situ assembly. a The illustration the working mechanism of BIVA probe based on FAP-α catalytic hydrolysis. b HPLC curves of M3 and M5 after incubation with FAP-α in buffer. R-M3, M3 and M5 were synthesized controls. The TEM image (c), and the MALDI-TOF (d), results of M1 after tailoring by FAP-α in buffer, the red arrows represent the assembled fibrils of M1 after incubation with FAP-α. e The enzyme specificity of M1 in buffer. Buffer: 50 mM Tris, 1 M NaCl, 1 mg/mL, BSA, pH 7.5; Concentration of M1 and M3: 100 μM; Concentration of FAP-α: 50 μM; incubation time: 12 h. […]

[3] = Critical assembly concentration (CAC) by pyrene fluorescence probe; type: physicochemical
From the text: In order to study the molecular design and their assembly behavior, we modular designed and synthesized seven molecules (Table 1), which respectively were BIVA probe: M1 (mPEG-GPAKLVFFGC(IR783)GRGD); the non- FAP-α tailoring molecule: M2 (mPEG-AGGKLVFFGC(IR783)GRGD) scrambled response tailoring motif of Gly-Pro-Ala with Ala-Gly-Gly; the non-labeling molecule of M1: M3 (mPEG-GPAKLVFFGCGRGD) removed IR783 labeling; FAP-α tailoring residue of M1: R-M1 (AKLVFFGC(IR783)GRGD); the non-targeting molecule: M4 (mPEG-GPAKLVFFGC(IR783)GDTG) scrambled targeting tailoring motif of Arg-Gly-Asp with Asp-Thr-Gly; the non-labeling molecule of M2: M5 (mPEG-AGGKLVFFGCGRGD) removed IR783 labeling; FAP-α tailoring residue of M3: R-M3 (AKLVFFGCGRGD). All the synthesized procedure (Supplementary Fig. 1) and characterizations of these seven molecules can be found in SI (Supplementary Figs. 2–8). […] Without IR783 labeling, molecules of M3 and M5 decreased the CAC value in solution relative to M1 and M2, which could be attributed to the proximity of the steric hindrance of hydrophilic IR783 to the self-assembly motif (Supplementary Fig. 9). […] The CAC was quantitatively calculated by fluorescence probe of pyrene.

MIA PaCa-2 cells [4] = experiment: Cellular imaging (CLSM) of FITC-labelled molecules; type: cell-based; conditions: FITC-labelled molecules, MIA PaCa-2 cells, 1 h incubation, CLSM
Procedure: To further confirm this hypothesis, the M1 and M2 were equally labeled by FITC for cell imaging (Fig. 5b). To simulate the dynamic physiological condition, the cell culture medium was replaced every 15 min. After 1 h of incubation with M1 and M2 at the same molecule molar concentration, there occurred significant differences between the two molecules (Fig. 5c). […] The huge difference can be explained by the fact that the secondary assembly rate broke the balance between the targeted ligand and receptor, and thus tended to a stable assembly interaction. The retention efficiency depended on the assembly rate constant Ka. Meanwhile, the rapid dynamic assembly of BIVA probe in situ around the cell membrane, and contributed to the efficient formation and retention of nanofibers on the cell profile. When the incubation time was delayed up to 2 h, some components could be endocytosed into the cells, but most of them were found on the membranes (Supplementary Fig. 18). […] Then, the isolated cells were collected and lysed, the extracted cell membrane fragments were stained with ThT. […] In order to verify the influence of the addition of the targeting module of the probe molecules, we explored the imaging of R-M1 and M4 on cells.
(§1) Fig. 5 The BIVA effect with enhanced targeting to pancreatic tumor cell for boundaries imaging. a Illustration of BIVA effect: active targeting and assembly/aggregate induced retention (AIR) effect. b Chemical structure of FITC labeling. c 2D and 3D confocal images of M2 with active targeting property and M1 with BIVA effect on MIA PaCa-2 cells after incubation for 1 h. d The distribution of M1 on MIA PaCa-2 cell. e ThT staining of the lysed cell membrane of MIA PaCa-2. f, Illustration of migration inhibition after treated by BIVA probe. g The image of the migrated cells after treatment of PBS (blank), M2, M4, and M1. Scale bar: 100 μm. h The pie diagram of quantitative statistical calculation of the migrated cells (blue) in different groups. The blank control was set as 100% migrated cells.
MIA PaCa-2 cells were digested with trypsin, counted with cell counting plate, diluted to 1 × 10^4 with DMEM medium, and 1 mL to 1 cm diameter confocal microscope dish was taken. The cells were incubated in […] atmosphere for 24 h. The medium containing M1 and M2 (50 μM) was replaced and incubated with the cells for 2 h. The cells were washed with PBS for 3 times. CLSM (Zeiss 710) was used to image cells under 40 × objective, excitation = 488 nm, and emission >520 nm.
Supplementary Fig. 19 ∣ CLSM images of Miapaca-2 cells treated with different molecules or M1 under different conditions. […]

MIA PaCa-2 cells [5] = experiment: Transwell migration assay; type: cell-based; conditions: MIA PaCa-2, 150 μM, 24 h; blank control = 1
Procedure: as §1
In order to further understand the contribution of the active targeting and AIR effect during locating of the cells, the cell transwell experiment was used to quantitively evaluate interference of the cell migration based on M1, M2, and M4 (Fig. 5f). As expected, untreated cells were easy to migrate to the lower chamber, while the cells treated with active targeting molecule M2 and assembled molecule M4, the migration of cell were reduced. Under the same molar concentration, the M1 treatment group had the most inference on cell migration (Fig. 5g). […] Based on those results, we speculate M1 can be more enriched in the tumor site and form fibers through assembly to inhibit tumor cell migration compared to M2 and M4 which have no ability to target and adhere on the cell membrane.
Transwell migration assay occurred in chemotaxis chambers containing 24 wells. […] Bottom chambers contained DMEM medium containing 10% FBS. After 24 h of treatment with M1, M2, and M4 (150 μM), we fixed cells using 4% paraformaldehyde and stained with 0.25% crystal violet solution. The stained cells were counted using a microscope.
Supplementary Fig. 20∣ The quantitative results of the migrated cells after treatment of PBS (blank), M2, […] and
M1 (Fig 5g). The mean of results of fiveparallel experiments is shown and data were expressed as mean ± SD (n=5).
pM1 = 5.85E-06, pM2 = 5.94E-05, pM4 = 3.16 E-04, Statisticalanalysis: one-way ANOVA followed by post hoc Tukey’s
(1 picture or pasted object on this page, not shown here)

With CC1(C)C(/C=C/C=C/C=C/C=C2\N(CCCCS(=O)(=O)O)c3ccc4ccccc4c3C2(C)C)=[N+](CCCCS(=O)(=O)[O-])c2ccc3ccccc3c21 [ICG, indocyanine green] the “time to complete metabolic clearance” value (MIA PaCa-2 tumor) was ≤ 8 h and the “blood circulation half-life (t1/2)” value [1] was 2.5 ± 0.5 min.
In the case of mPEG-AGGKLVFFGCGRGD, the not cleaved [2] is reported as “no change of the retention peak”.
For “mPEG-AGGKLVFFGCGRGD [M5, the non-labeling molecule of M2]”, the “tailoring (cleavage) by FAP-α” value (FAP-α) was “no change of the retention peak”, the “Critical assembly concentration (CAC)” value ([3]; aqueous solution, analyzed based on pyrene fluorescence) was >332.7 µM and the “pyrene I1/I3” value ([3]; conc 100 μM) was 1.152. For the same molecule, the “pyrene I1/I3” value ([3]; conc 200 μM) was 1.176, the “pyrene I1/I3” value ([3]; conc 300 μM) was 1.178 and the “pyrene I1/I3” value ([3]; conc 400 μM) was 1.119. The “pyrene I1/I3” value ([3]; conc 500 μM) was 1.173, the “pyrene I1/I3” value ([3]; conc 600 μM) was 1.077 and the “pyrene I1/I3” value ([3]; conc 700 μM) was 1.029. The “pyrene I1/I3” value ([3]; conc 800 μM) was 1.021 and the “pyrene I1/I3” value ([3]; conc 900 μM) was 0.975.
In the case of “mPEG-GPAKLVFFGC(IR783)GDTG [M4, the non-targeting molecule]”, the “fluorescence signal on the cell membrane” value (MIA PaCa-2 cells [4]) is reported as “only a small amount of fluorescence signal” and the “emigrate (migrated cells relative to blank)” value (MIA PaCa-2 cells [5]) is reported as 0.5282.
In the case of mPEG-GPAKLVFFGCGRGD, the cleaved bond [2] is reported as “Pro-Ala”.
